In paper PMC8043444 (bioRxiv, 2021):

Legend:
[1] = molecular target: T1, SARS-CoV-2 RBD WT for SPR binding assays (SARS-CoV-2, UniProt P0DTC2); assay: cell-based or functional assay
[2] = molecular target: T1, SARS-CoV-2 RBD WT for SPR binding assays; assay: SPR
[3] = molecular target: SARS-CoV-2 RBD WT for crystallization (SARS-CoV-2, UniProt P0DTC2, deglycosylated by overnight incubation with EndoH glycosidase); assay: crystal structure

B1: S2H97 IgG1 (LS) (antibody, V domains shown)
VH: QVRLVQSGAEVKKSGESLKISCKGSGYSFTSYWIGWVRQMPGKGLEWMGIIYPGDSDTRYSPSFQGQVTISADKSISTVYLQWSSLKASDTAMYYCARQWSHYTYDYYYWGQGTLVTISS
VL: QSVLTQPASVSGSPGQSITISCTGISSDVGGYNSVSWYQQHPGKAPKLMIYDVTNRPSGVSNRFSGSKSGNTASLTISGLQAEDEADYYCSSYTSSSTPPYVFGTGTKVSVL
[1]
  neutralisation of authentic SARS-CoV-2-Nluc on Vero E6 cells (IF/luc), IC90: 3290
[2]
  Kd: 0.04 nM

B2: S2H97 Fab (Fab, V domains shown)
VH: QVRLVQSGAEVKKSGESLKISCKGSGYSFTSYWIGWVRQMPGKGLEWMGIIYPGDSDTRYSPSFQGQVTISADKSISTVYLQWSSLKASDTAMYYCARQWSHYTYDYYYWGQGTLVTISS
VL: QSVLTQPASVSGSPGQSITISCTGISSDVGGYNSVSWYQQHPGKAPKLMIYDVTNRPSGVSNRFSGSKSGNTASLTISGLQAEDEADYYCSSYTSSSTPPYVFGTGTKVSVL
[2]
  Kd: 0.03 nM

B3: S2X35 IgG1 (LS) (antibody, V domains shown)
VH: QVQLVQSGAEVKKPGASVKVSCKASGYTFTNYGISWVRQAPGQGLEWMGWISAYKGNTNYAQKLQGRVTMTTDTSTSTAYMELRSLRSDDTAVYYCARPDYQVLGYDFWIGYYGMDVWGQGTTVIVSS
VL: QSVLTQPPSVSGAPGQRVTISCTGSSSNIGAGYDVHWYQQLPGTAPKLLIYGNTNRPSGVPDRFSGSKSGTSASLAITGLQAEDEADYYCQSYDSSLSGSEVVFGGGTKLTVL
[1]
  neutralisation of authentic SARS-CoV-2-Nluc on Vero E6 cells (IF/luc), IC90: 592
[2]
  Kd: 0.06 nM

B4: S2X259 Fab (Fab, V domains shown)
VH: QVQLVQSGAEVKKPGSSVKVSCKASGGIFNTYTISWVRQAPGQGLEWMGRIILMSGMANYAQKIQGRVTITADKSTSTAYMELTSLRSDDTAVYYCARGFNGNYYGWGDDDAFDIWGQGTLVTVYS
VL: QTVLTQPPSVSGAPGQRVTISCTGSNSNIGAGYDVHWYQQLPGTAPKLLICGNSNRPSGVPDRFSGSKSGTSASLAITGLQAEDEADYYCQSYDSSLSGPNWVFGGGTKLTVL
[3]
  binding result: binds

B5: S304 IgG1 (LS) (antibody, V domains shown)
VH: EVQLVESGGGLVQPGGSLRLSCAASGFTFSSYDMHWVRQTTGKGLEWVSTIGTAGDTYYPDSVKGRFTISREDAKNSLYLQMNSLRAGDTAVYYCARGDSSGYYYYFDYWGQGTLLTVSS
VL: DIEMTQSPSSLSAAVGDRVTITCRASQSIGSYLNWYQQKPGKAPKLLIYAASSLQSGVPSRFSGSGSGTDFTLTISSLQPEDFAIYYCQQSYVSPTYTFGPGTKVDIK
[2]
  Kd: 0.4 nM

B6: S2E12 IgG1 (LS) (antibody, V domains shown)
VH: not shown
VL: DIVLTQTPGTLSLSPGERATLSCRASQSVSSSYLAWYQQKPGQAPRLLIYGASSRATGIPDRFSGSGSGTDFTLTISRLEPEDFAVYYCQQYVGLTGWTFGQGTKVEIK
[1]
  neutralisation of authentic SARS-CoV-2-Nluc on Vero E6 cells (IF/luc), IC90: 14
[2]
  Kd: 0.7 nM

B7: S2D106 IgG1 (LS) (antibody, V domains shown)
VH: EVQLVQSGAEVKKPGSSVKVSCKASGGPFSSSAISWVRQAPGQGLEWMGGIIPMVGTANYAQKFQGRVTITADESTSTAYMELSSLRSEDTAVYYCARDSRYCSGGSCYSVWFDPWGQGTLVTVSS
VL: not shown
[1]
  neutralisation of authentic SARS-CoV-2-Nluc on Vero E6 cells (IF/luc), IC90: 23.6
[2]
  Kd: 0.04 nM

B8: S2D106 Fab (Fab, V domains shown)
VH: EVQLVQSGAEVKKPGSSVKVSCKASGGPFSSSAISWVRQAPGQGLEWMGGIIPMVGTANYAQKFQGRVTITADESTSTAYMELSSLRSEDTAVYYCARDSRYCSGGSCYSVWFDPWGQGTLVTVSS
VL: not shown
[2]
  Kd: 0.05 nM
